Values of other authors as cited in article PMC5648805.

How the values were obtained:
Orai1 (Homo sapiens) = Orai1 (Homo sapiens) (UniProt Q96D31)
[1] = target: Calmodulin (Homo sapiens) (UniProt P0DP23); experiment: ITC

Chain of UniProt Q96D31 (Q96D31 whole entry): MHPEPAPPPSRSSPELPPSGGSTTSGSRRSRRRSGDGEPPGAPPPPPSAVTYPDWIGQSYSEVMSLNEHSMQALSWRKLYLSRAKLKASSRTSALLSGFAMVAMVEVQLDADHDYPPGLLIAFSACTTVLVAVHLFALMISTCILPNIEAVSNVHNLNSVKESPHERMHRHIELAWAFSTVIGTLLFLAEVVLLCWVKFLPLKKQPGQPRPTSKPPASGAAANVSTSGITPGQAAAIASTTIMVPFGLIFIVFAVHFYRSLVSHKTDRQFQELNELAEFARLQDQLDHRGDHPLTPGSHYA

Substance | Kd (Orai1 (Homo sapiens)) [µM] | Kd [1] [µM]
STIM1 SOAR (from UniProt Q13586) | 200 | –
STIM1 polybasic peptide polybasic region (from UniProt Q13586) | – | 1
